Results: patent US20230051715A1 (MABWELL THERAPEUTICS, published 2023)
Values belong to the binder of their own block, whether it stands above or below them.

Experiments:
[1] = biological target: T1, full-length human C1s (produced in house) (human, UniProt P09871 16-688); assay: ELISA, plate coated with 200 ng/well HuC1s, OD450nm
T1 construct: Called full-length; Partly auto-cleaved at R422-I423 on blots; also called HuC1s; Hu C1s
T1 sequence: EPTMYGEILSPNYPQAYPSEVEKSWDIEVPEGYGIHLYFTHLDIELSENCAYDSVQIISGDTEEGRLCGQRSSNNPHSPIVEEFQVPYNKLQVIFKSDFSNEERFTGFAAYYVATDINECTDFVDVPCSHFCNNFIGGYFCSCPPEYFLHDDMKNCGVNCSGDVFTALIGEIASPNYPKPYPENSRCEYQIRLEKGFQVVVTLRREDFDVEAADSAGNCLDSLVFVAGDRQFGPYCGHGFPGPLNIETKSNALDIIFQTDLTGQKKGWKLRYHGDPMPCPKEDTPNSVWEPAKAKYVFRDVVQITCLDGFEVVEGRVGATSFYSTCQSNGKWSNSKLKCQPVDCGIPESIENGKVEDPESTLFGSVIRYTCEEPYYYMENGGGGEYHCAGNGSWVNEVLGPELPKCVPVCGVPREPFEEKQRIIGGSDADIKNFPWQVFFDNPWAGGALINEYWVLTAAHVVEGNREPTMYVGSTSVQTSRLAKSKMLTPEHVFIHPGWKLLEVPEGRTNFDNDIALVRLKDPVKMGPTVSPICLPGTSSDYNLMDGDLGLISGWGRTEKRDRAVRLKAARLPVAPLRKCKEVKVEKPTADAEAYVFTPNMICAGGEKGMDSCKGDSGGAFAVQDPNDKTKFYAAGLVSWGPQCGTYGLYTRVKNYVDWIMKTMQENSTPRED
Method: (§1) The next morning, plates were blocked with SuperBlock T20 blocking buffer (Thermo Scientific 37536) for 1 h with gentle shaking. Then, various concentrations of anti-C1s antibodies diluted in SuperBlock T20 blocking buffer were added to the plates and incubated for 1 h with gentle shaking. Mouse IgG (Sigma-Aldrich I5381) and Human IgG1 (BioXCell BP0297) were used as negative controls. The plates were washed before incubating with HRP conjugated secondary antibodies diluted in SuperBlock T20 blocking buffer (goat anti-mouse IgG (H+L) cross-adsorbed secondary antibody HRP (Invitrogen G-21040) or goat anti-human IgG antibody, HRP conjugate (Millipore AP309P)) for 1 h with gentle shaking. At last, the plates were washed and color developed with ELISA liquid substrate (Sigma-Aldrich), followed by stopping the reaction with addition of the same volume of […] 1M H₂SO₄. Bound antibody was measured by absorbance at OD₄₅₀ₙₘ.

[2] = biological target: T2, full-length mouse C1s (produced in house) (mouse, UniProt Q8CG14 16-688); assay: ELISA, plate coated with 200 ng/well MoC1s, OD450nm
T2 construct: Called full-length; also called MoC1s; moC1s
T2 sequence: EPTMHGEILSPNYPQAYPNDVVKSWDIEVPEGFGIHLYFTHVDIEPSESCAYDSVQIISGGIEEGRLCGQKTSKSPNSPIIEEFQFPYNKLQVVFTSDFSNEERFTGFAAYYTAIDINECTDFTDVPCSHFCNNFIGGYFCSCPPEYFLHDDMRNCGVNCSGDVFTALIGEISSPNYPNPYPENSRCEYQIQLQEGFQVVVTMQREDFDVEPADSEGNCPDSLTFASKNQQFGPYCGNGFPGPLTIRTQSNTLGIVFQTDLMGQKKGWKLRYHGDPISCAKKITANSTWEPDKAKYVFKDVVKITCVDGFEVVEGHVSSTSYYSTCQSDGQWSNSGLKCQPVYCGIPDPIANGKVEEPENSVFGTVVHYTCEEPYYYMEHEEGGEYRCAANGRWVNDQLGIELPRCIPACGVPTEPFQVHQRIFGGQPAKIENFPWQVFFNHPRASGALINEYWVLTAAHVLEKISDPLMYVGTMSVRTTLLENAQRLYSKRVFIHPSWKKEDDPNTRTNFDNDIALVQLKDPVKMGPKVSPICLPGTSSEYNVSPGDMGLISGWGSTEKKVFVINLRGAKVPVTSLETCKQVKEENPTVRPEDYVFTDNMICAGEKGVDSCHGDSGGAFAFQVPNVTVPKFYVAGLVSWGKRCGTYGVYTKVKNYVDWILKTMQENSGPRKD
Method: as §1

[3] = biological target: T3, human C1s deletion mutant 2 (NHC) (human, UniProt P09871 16-437); assay: ELISA, plate coated with 200 ng/well HuC1s(NHC), OD450nm
T3 construct: C-terminal 6xHis tag; also called HuC1s(NHC); huC1sNHC
T3 sequence: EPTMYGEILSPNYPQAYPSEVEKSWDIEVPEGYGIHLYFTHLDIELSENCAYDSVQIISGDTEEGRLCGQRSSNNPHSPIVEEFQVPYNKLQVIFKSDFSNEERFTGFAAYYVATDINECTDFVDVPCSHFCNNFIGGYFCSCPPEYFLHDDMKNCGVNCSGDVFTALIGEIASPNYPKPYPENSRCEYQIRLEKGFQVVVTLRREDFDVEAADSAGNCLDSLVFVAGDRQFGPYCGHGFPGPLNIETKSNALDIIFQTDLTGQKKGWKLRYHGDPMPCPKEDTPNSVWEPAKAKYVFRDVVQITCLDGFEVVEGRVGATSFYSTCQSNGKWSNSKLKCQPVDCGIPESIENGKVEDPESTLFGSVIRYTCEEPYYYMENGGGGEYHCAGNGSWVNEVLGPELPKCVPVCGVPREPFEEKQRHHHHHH
Method: ELISA was carried out by first coating 96-well plates with 200 ng/well of full-length or truncated C1s proteins overnight. The next morning, plates were blocked with SuperBlock T20 blocking buffer (Thermo Scientific 37536) for 1 h with gentle shaking. Then, various concentrations of anti-C1s antibodies diluted in SuperBlock T20 blocking buffer were added to the plates and incubated for 1 h with gentle shaking. Mouse IgG (Sigma-Aldrich 15381) and human IgG1 (BioXCell BP0297) were used as negative controls. The plates were washed before incubating with HRP conjugated secondary antibodies diluted in SuperBlock T20 blocking buffer (goat anti-mouse IgG (H+L) cross-adsorbed secondary antibody HRP (Invitrogen G-21040) or goat anti-human IgG antibody, HRP conjugate (Millipore AP309P)) for 1 h with gentle shaking. At last, the plates were washed and color developed with ELISA liquid HRP substrate (Sigma-Aldrich), followed by stopping the reaction with addition of 1M H₂SO₄ in the same volume as the ELISA liquid substrate. Bound antibody was measured by absorbance at OD₄₅₀ₙₘ.

EC50 [1]: 5 ng/mL
binding result [2]: no binding (tested: 1000 ng/ml (Log 3))
EC50 [3]: 12 ng/mL
B1: Anti-C1s antibody 2-8 (antibody, V domains shown)
VH: EVQLQQSGAELVRPGALVKLSCKASGFNIKEYYMHWVKQRPEQGLEWIGWIDPENGDTIYDPKFQGKASITADTSSNTAYLQLSSLTSEDTAVYYCARSRLFFAYWGQGTLVTVSA
VL: DIVMTQSHKFMSTSVGDRVSFTCKASQDVRTAVDWYQQKPGQSPKLLIYSASYRYTGVPDRFTGTGSGTDFTFTISSVQAEDLAVYFCQQQYTTPYTFGGGTKLEIKT
notes: the HC/LC entries may hold it too; also called clone 2-8

EC50 [1]: 6 ng/mL
binding result [2]: no binding (tested: 1000 ng/ml (Log 3))
EC50 [3]: 9 ng/mL
B2: Anti-C1s antibody 2-7 (antibody, human IgG1, kappa, V domains shown)
VH: EVKLEESGGGLVPPGGSMKLSCVASGFTFSNYFMNWVRQSPEKGLEWVAEIRLKFTNYATHYAESVEGRFTISRDDSKSSVYLQMNNLRAEDTGIYYCTRDYGSRNGYFDYWGQGTTLTVSS
VL: DIVMTQAAPSVPVTPGESVSISCRSSKSLLHSNGNTFLYWFLQRPGQSPQLLIYRMSNLASGVPDRFSGSGSGTAFTLRVSRVEAEDVGIYYCMQHLEYPYTFGGGTKLEIKT
notes: the HC/LC entries may hold it too; also called clone 2-7

EC50 [1]: 4 ng/mL
binding result [2]: no binding (tested: 1000 ng/ml (Log 3))
B3: Anti-C1s antibody hz2-8 (H1L2 G80A/T82A) (antibody, V domains shown)
VH: QVQLVQSGAEVKKPGASVKVSCKASGFNIKEYYMHWVRQAPEQGLEWMGWIDPENADAIYAQKFQGRVTITADTSTNTAYMELSSLRSEDTAVYYCARSRLFFAYWGQGTLVTVSS
VL: DIQMTQSPKSLSASVGDRVTITCRASQDVRTALDWYQQKPGQSPKLLIYSASYRYSGVPSRFSGSGSGTDFTLTISSLQPEDFATYYCQQQYTTPYTFGQGTKLEIKR
notes: Humanized variant with G80A and T82A in HC CDR2 (already in the entry), human IgG1 / kappa

EC50 [1]: 6 ng/mL
binding result [2]: no binding (tested: 1000 ng/ml (Log 3))
EC50 [3]: 6 ng/mL
B4: Anti-C1s antibody hz2-7(H1L2) (antibody, V domains shown)
VH: EVQLLESGGGLVQPGGSLRLSCAASGFTFSNYFMNWVRQAPGKGLEWVSEIRLKFTNYATHYADSVKGRFTISRDDSKSTLYLQMNSLRAEDTAVYYCTRDYGSRNGYFDYWGQGTLVTVSS
VL: DIVMTQTPLSLPVTPGEPASISCRSSKSLLHSNGNTFLYWFLQKPGQSPQLLIYRMSNLASGVPDRFSGSGSGTDFTLKISRVEAEDVGVYYCMQHLEYPYTFGGGTKLEIKR
notes: Humanized, human IgG1 / kappa; also called hz2-7(1L2)
